Experimental data as given in US20100260668A1 (published 2010).

The binders below were run against T1, DLL4 ECD His tag (UniProt Q9NR61 27-529, limits assumed) (assay: SPR (Biacore), DVD-Ig captured, DLL4 as analyte).
T1 construct: extracellular domain; also called DLL ECD His tag

Binder | Kd | koff | kon
DVD489 (bispecific antibody, human IgG1, kappa, L234A L235A, HC linker short, LC linker short; also called DVD-Ig DVD489) heavy: not shown light: DIQMTQSSSYLSVSLGGRVTITCKASDHINNWLAWYQQKPGNAPRLLISGATSLETGVPSRFSGSGSGKDYTLSITSLQTEDVATYYCQQYWSIPLTFGAGTKLELKRTVAAPDIQMTQSPSSLSASVGDRVTITCRASQDVSTAVAWYQQKPGKAPKLLIYSASFLYSGVPSRFSGSGSGTDFTLTISSLQPEDFATYYCQQSYTTPPTFGQGTKVEIKRTVAAPSVFIFPPSDEQLKSGTASVVCLLNNFYPREAKVQWKVDNALQSGNSQESVTEQDSKDSTYSLSSTLTLSKADYEKHKVYACEVTHQGLSSPVTKSFNRGEC | 0.283 nM | 8.38e-05 s⁻¹ | 296000 M⁻¹ s⁻¹
DVD495 (bispecific antibody, human IgG1, kappa, HC linker long, LC linker long; also called DVD-Ig DVD495) heavy: not shown light: DIQMTQSSSYLSVSLGGRVTITCKASDHINNWLAWYQQKPGNAPRLLISGATSLETGVPSRFSGSGSGKDYTLSITSLQTEDVATYYCQQYWSIPLTFGAGTKLELKRTVAAPSVFIFPPDIQMTQSPSSLSASVGDRVTITCRASQDVSTAVAWYQQKPGKAPKLLIYSASFLYSGVPSRFSGSGSGTDFTLTISSLQPEDFATYYCQQSYTTPPTFGQGTKVEIKRTVAAPSVFIFPPSDEQLKSGTASVVCLLNNFYPREAKVQWKVDNALQSGNSQESVTEQDSKDSTYSLSSTLTLSKADYEKHKVYACEVTHQGLSSPVTKSFNRGEC | 0.263 nM | 7.91e-05 s⁻¹ | 301000 M⁻¹ s⁻¹
DVD466 (bispecific antibody, human IgG1, kappa, HC linker short, LC linker short; also called DVD-Ig DVD466) heavy: not shown light: DIQMTQSPSSLSASVGDRVTITCRASQDVSTAVAWYQQKPGKAPKLLIYSASFLYSGVPSRFSGSGSGTDFTLTISSLQPEDFATYYCQQSYTTPPTFGQGTKVEIKRTVAAPDIQMTQSPSSLSASVGDRVTITCRASQDVSTAVAWYQQKPGKAPKLLIYSASFLYSGVPSRFSGSGSGTDFTLTISSLQPEDFATTYYCQQSYTGTVTFGQGTKVEIKRTVAAPSVFIFPPSDEQLKSGTASVVCLLNNFYPREAKVQWKVDNALQSGNSQESVTEQDSKDSTYSLSSTLTLSKADYEKHKVYACEVTHQGLSSPVTKSFNRGEC | 1.25 nM | 0.000139 s⁻¹ | 111000 M⁻¹ s⁻¹
DVD478 (bispecific antibody, human IgG1, kappa, HC linker long, LC linker short; also called DVD-Ig DVD478) heavy: not shown light: DIQMTQSPSSLSASVGDRVTITCRASQDVSTAVAWYQQKPGKAPKLLIYSASFLYSGVPSRFSGSGSGTDFTLTISSLQPEDFATYYCQQSYTTPPTFGQGTKVEIKRTVAAPDIQMTQSPSSLSASVGDRVTITCRASQDVSTAVAWYQQKPGKAPKLLIYSASFLYSGVPSRFSGSGSGTDFTLTISSLQPEDFATTYYCQQSYTGTVTFGQGTKVEIKRTVAAPSVFIFPPSDEQLKSGTASVVCLLNNFYPREAKVQWKVDNALQSGNSQESVTEQDSKDSTYSLSSTLTLSKADYEKHKVYACEVTHQGLSSPVTKSFNRGEC | 2.22 nM | 0.000167 s⁻¹ | 75200 M⁻¹ s⁻¹
DVD444 (bispecific antibody, human IgG1, kappa, HC linker short, LC linker short; also called DVD-Ig DVD444) heavy: not shown light: DIQMTQSPSSLSASVGDRVTITCRASQDVSTAVAWYQQKPGKAPKLLIYSASFLYSGVPSRFSGSGSGTDFTLTISSLQPEDFATYYCQQSYTTPPTFGQGTKVEIKRTVAAPDIVMTQSPDSLAVSLGERATISCRASESVDNYGISFMKWFQQKPGQPPKLLIYAASNQGSGVPDRFSGSGSGTDFTLTISSLQAEDVAVYYCQQSKEVPWTFGGGTKVEIKRTVAAPSVFIFPPSDEQLKSGTASVVCLLNNFYPREAKVQWKVDNALQSGNSQESVTEQDSKDSTYSLSSTLTLSKADYEKHKVYACEVTHQGLSSPVTKSFNRGEC | 2.37 nM | 0.00034 s⁻¹ | 143000 M⁻¹ s⁻¹
DVD456 (bispecific antibody, human IgG1, kappa, HC linker long, LC linker short; also called DVD-Ig DVD456) heavy: not shown light: DIQMTQSPSSLSASVGDRVTITCRASQDVSTAVAWYQQKPGKAPKLLIYSASFLYSGVPSRFSGSGSGTDFTLTISSLQPEDFATYYCQQSYTTPPTFGQGTKVEIKRTVAAPDIVMTQSPDSLAVSLGERATISCRASESVDNYGISFMKWFQQKPGQPPKLLIYAASNQGSGVPDRFSGSGSGTDFTLTISSLQAEDVAVYYCQQSKEVPWTFGGGTKVEIKRTVAAPSVFIFPPSDEQLKSGTASVVCLLNNFYPREAKVQWKVDNALQSGNSQESVTEQDSKDSTYSLSSTLTLSKADYEKHKVYACEVTHQGLSSPVTKSFNRGEC | 1.66 nM | 0.000174 s⁻¹ | 104000 M⁻¹ s⁻¹
DVD472 (bispecific antibody, human IgG1, kappa, HC linker long, LC linker long; also called DVD-Ig DVD472) heavy: not shown light: DIQMTQSPSSLSASVGDRVTITCRASQDVSTAVAWYQQKPGKAPKLLIYSASFLYSGVPSRFSGSGSGTDFTLTISSLQPEDFATYYCQQSYTTPPTFGQGTKVEIKRTVAAPSVFIFPPDIQMTQSPSSLSASVGDRVTITCRASQDVSTAVAWYQQKPGKAPKLLIYSASFLYSGVPSRFSGSGSGTDFTLTISSLQPEDFATTYYCQQSYTGTVTFGQGTKVEIKRTVAAPSVFIFPPSDEQLKSGTASVVCLLNNFYPREAKVQWKVDNALQSGNSQESVTEQDSKDSTYSLSSTLTLSKADYEKHKVYACEVTHQGLSSPVTKSFNRGEC | 0.881 nM | 8.64e-05 s⁻¹ | 98000 M⁻¹ s⁻¹
DVD484 (bispecific antibody, human IgG1, kappa, HC linker short, LC linker long; also called DVD-Ig DVD484) heavy: not shown light: DIQMTQSPSSLSASVGDRVTITCRASQDVSTAVAWYQQKPGKAPKLLIYSASFLYSGVPSRFSGSGSGTDFTLTISSLQPEDFATYYCQQSYTTPPTFGQGTKVEIKRTVAAPSVFIFPPDIQMTQSPSSLSASVGDRVTITCRASQDVSTAVAWYQQKPGKAPKLLIYSASFLYSGVPSRFSGSGSGTDFTLTISSLQPEDFATTYYCQQSYTGTVTFGQGTKVEIKRTVAAPSVFIFPPSDEQLKSGTASVVCLLNNFYPREAKVQWKVDNALQSGNSQESVTEQDSKDSTYSLSSTLTLSKADYEKHKVYACEVTHQGLSSPVTKSFNRGEC | 2.96 nM | 0.000295 s⁻¹ | 99700 M⁻¹ s⁻¹
DVD450 (bispecific antibody, human IgG1, kappa, HC linker long, LC linker long; also called DVD-Ig DVD450) heavy: not shown light: DIQMTQSPSSLSASVGDRVTITCRASQDVSTAVAWYQQKPGKAPKLLIYSASFLYSGVPSRFSGSGSGTDFTLTISSLQPEDFATYYCQQSYTTPPTFGQGTKVEIKRTVAAPSVFIFPPDIVMTQSPDSLAVSLGERATISCRASESVDNYGISFMKWFQQKPGQPPKLLIYAASNQGSGVPDRFSGSGSGTDFTLTISSLQAEDVAVYYCQQSKEVPWTFGGGTKVEIKRTVAAPSVFIFPPSDEQLKSGTASVVCLLNNFYPREAKVQWKVDNALQSGNSQESVTEQDSKDSTYSLSSTLTLSKADYEKHKVYACEVTHQGLSSPVTKSFNRGEC | 7.41 nM | 0.000251 s⁻¹ | 33800 M⁻¹ s⁻¹
DVD462 (bispecific antibody, human IgG1, kappa, HC linker short, LC linker long; also called DVD-Ig DVD462) heavy: not shown light: DIQMTQSPSSLSASVGDRVTITCRASQDVSTAVAWYQQKPGKAPKLLIYSASFLYSGVPSRFSGSGSGTDFTLTISSLQPEDFATYYCQQSYTTPPTFGQGTKVEIKRTVAAPSVFIFPPDIVMTQSPDSLAVSLGERATISCRASESVDNYGISFMKWFQQKPGQPPKLLIYAASNQGSGVPDRFSGSGSGTDFTLTISSLQAEDVAVYYCQQSKEVPWTFGGGTKVEIKRTVAAPSVFIFPPSDEQLKSGTASVVCLLNNFYPREAKVQWKVDNALQSGNSQESVTEQDSKDSTYSLSSTLTLSKADYEKHKVYACEVTHQGLSSPVTKSFNRGEC | 2.98 nM | 0.00025 s⁻¹ | 83900 M⁻¹ s⁻¹

Now from value to binder:

Kd | koff | kon | Binder
0.302 nM | 8.14e-05 s⁻¹ | 270000 M⁻¹ s⁻¹ | DVD501 (bispecific antibody, human IgG1, kappa, HC linker long, LC linker short; also called DVD-Ig DVD501) heavy: not shown light: DIQMTQSSSYLSVSLGGRVTITCKASDHINNWLAWYQQKPGNAPRLLISGATSLETGVPSRFSGSGSGKDYTLSITSLQTEDVATYYCQQYWSIPLTFGAGTKLELKRTVAAPDIQMTQSPSSLSASVGDRVTITCRASQDVSTAVAWYQQKPGKAPKLLIYSASFLYSGVPSRFSGSGSGTDFTLTISSLQPEDFATYYCQQSYTTPPTFGQGTKVEIKRTVAAPSVFIFPPSDEQLKSGTASVVCLLNNFYPREAKVQWKVDNALQSGNSQESVTEQDSKDSTYSLSSTLTLSKADYEKHKVYACEVTHQGLSSPVTKSFNRGEC
0.265 nM | 7.16e-05 s⁻¹ | 270000 M⁻¹ s⁻¹ | DVD507 (bispecific antibody, human IgG1, kappa, L234A L235A, HC linker short, LC linker long; also called DVD-Ig DVD507) heavy: not shown light: DIQMTQSSSYLSVSLGGRVTITCKASDHINNWLAWYQQKPGNAPRLLISGATSLETGVPSRFSGSGSGKDYTLSITSLQTEDVATYYCQQYWSIPLTFGAGTKLELKRTVAAPSVFIFPPDIQMTQSPSSLSASVGDRVTITCRASQDVSTAVAWYQQKPGKAPKLLIYSASFLYSGVPSRFSGSGSGTDFTLTISSLQPEDFATYYCQQSYTTPPTFGQGTKVEIKRTVAAPSVFIFPPSDEQLKSGTASVVCLLNNFYPREAKVQWKVDNALQSGNSQESVTEQDSKDSTYSLSSTLTLSKADYEKHKVYACEVTHQGLSSPVTKSFNRGEC
3.47 nM | 0.000858 s⁻¹ | 248000 M⁻¹ s⁻¹ | DVD531 (bispecific antibody, human IgG1, kappa, lambda, HC linker short, LC linker long; also called DVD-Ig DVD531) heavy: not shown light: QAVVTQESALTTSPGETVTLTCRSSTGAVTTSNYANWVQEKPDHLFTGLIGGTNNRAPGVPARFSGSLIGDKAALTITGAQTEDEAIYFCALWYSNHWVFGGGTKLTVLGQPKAAPSVTLFPPDIQMTQSPSSLSASVGDRVTITCRASQDVSTAVAWYQQKPGKAPKLLIYSASFLYSGVPSRFSGSGSGTDFTLTISSLQPEDFATYYCQQSYTTPPTFGQGTKVEIKRTVAAPSVFIFPPSDEQLKSGTASVVCLLNNFYPREAKVQWKVDNALQSGNSQESVTEQDSKDSTYSLSSTLTLSKADYEKHKVYACEVTHQGLSSPVTKSFNRGEC
3.48 nM | 0.000432 s⁻¹ | 124000 M⁻¹ s⁻¹ | DVD514 (bispecific antibody, human IgG1, lambda, HC linker short, LC linker short; also called DVD-Ig DVD514) heavy: not shown light: DIQMTQSPSSLSASVGDRVTITCRASQDVSTAVAWYQQKPGKAPKLLIYSASFLYSGVPSRFSGSGSGTDFTLTISSLQPEDFATYYCQQSYTTPPTFGQGTKVEIKRTVAAPQAVVTQESALTTSPGETVTLTCRSSTGAVTTSNYANWVQEKPDHLFTGLIGGTNNRAPGVPARFSGSLIGDKAALTITGAQTEDEAIYFCALWYSNHWVFGGGTKLTVLGQPKAAPSVTLFPPSSEELQANKATLVCLISDFYPGAVTVAWKADSSPVKAGVETTTPSKQSNNKYAASSYLSLTPEQWKSHRSYSCQVTHEGSTVEKTVAPTECS
3.3 nM | 0.000408 s⁻¹ | 124000 M⁻¹ s⁻¹ | DVD520 (bispecific antibody, human IgG1, kappa, lambda, HC linker long, LC linker long; also called DVD-Ig DVD520) heavy: not shown light: DIQMTQSPSSLSASVGDRVTITCRASQDVSTAVAWYQQKPGKAPKLLIYSASFLYSGVPSRFSGSGSGTDFTLTISSLQPEDFATYYCQQSYTTPPTFGQGTKVEIKRTVAAPSVFIFPPQAVVTQESALTTSPGETVTLTCRSSTGAVTTSNYANWVQEKPDHLFTGLIGGTNNRAPGVPARFSGSLIGDKAALTITGAQTEDEAIYFCALWYSNHWVFGGGTKLTVLGQPKAAPSVTLFPPSSEELQANKATLVCLISDFYPGAVTVAWKADSSPVKAGVETTTPSKQSNNKYAASSYLSLTPEQWKSHRSYSCQVTHEGSTVEKTVAPTECS
